Measurements as given in the RNAGym collection of RNA variant scans (doi:10.1021/acssynbio.7b00057).

B1: Pistol ribozyme (parent)
chain: GGGUCGUUGUUCCAUAAUCGCGUGGAUAUGGCACGCAAGUUUCUACCGGGCACCGUAAAUGUCCGACUGGAGCCGUUCGGGCGGCUAUAAACAGACCUCAGGCCCGAAGCGUGGCGGCACCUGCCGCCGGUGGUAAAAAAGAUCGGAAGAGCACACGUCU

Variants of: B1
Assay: aptazyme ON/OFF ratio, guanine; higher = stronger switching; co-transcriptional cleavage with and without guanine

In order of falling “aptazyme ON/OFF ratio” value:
1. U7G G9A U10A U11A  2.42
2. U7C U10C U11A  2.11
3. U7C U10G U11C C12A  2.07
4. U7G G9A U10A U11G  2.05
5. U7C U10C U11C  1.74
6. U7C U10C U11G C13U  1.74
7. U7C U10C U11A C12A  1.53
8. U7C U10G U11C C12G  1.52
9. U7C U11C C12U  1.5
10. U7C U10C U11A C12A C13A  1.49
11. U7C U10A U11G  1.46
12. U7C U10C U11A C12U  1.42
13. U7G G9A C12U  1.41
14. U7G C12U  1.39
15. U7C U11C C12U C13A  1.39
16. U7C U10C U11A C13U  1.38
17. U7C U10C U11A C12G  1.38
18. U7C U11C C12G  1.35
19. U7C U10A U11A C12G C13G  1.33
20. U7C U10C U11C C12U C13U  1.33
21. U7C U10C U11A C12U C13G  1.32
22. U7C U11G C12G  1.31
23. U7C U10C U11C C12U  1.31
24. U7C U10C U11A C12A C13U  1.3
25. U7C U10G U11G C12U C13U  1.3
26. U7C U10A U11A  1.29
27. U7C U11C C12G C13G  1.29
28. U7C U11C C12U C13U  1.29
29. U7C U10C U11C C12A  1.29
30. U7C U10A C12G  1.29
31. U7C U11A C12A C13U  1.28
32. U7C U10C U11A C12U C13A  1.28
33. U7G G9A U10A C12A C13U  1.28
34. U7C U10A U11A C12G  1.28
35. U7C U10C U11C C12G  1.28
36. U7C U11G C12G C13G  1.27
37. U7C U10C U11A C12A C13G  1.26
38. U7C U11G C12U  1.26
39. U7C U10A U11C C12G  1.25
40. U7C U11A C12A C13G  1.25
41. U7C U10G C12U C13A  1.25
42. U7G C12G  1.25
43. U7G G9A C12A  1.25
44. U7C U10C U11C C12G C13A  1.25
45. U7C U10C U11C C12U C13A  1.25
46. U7C U10G C12U C13U  1.24
47. U7G G9A U10A U11G C12U  1.24
48. U7C U10C U11C C12G C13U  1.24
49. U7C U10C U11C C12U C13G  1.24
50. U7C U11A C12A C13A  1.23
51. U7C U11A C13U  1.23
52. U7C U10C C12G C13A  1.23
53. U7C U10A C12G C13U  1.23
54. U7C U10C U11A C12U C13U  1.22
55. U7G G9A U10A U11G C12G C13U  1.22
56. U7C U11C C12G C13U  1.22
57. U7C U11C C12U C13G  1.22
58. U7G C12A C13A  1.22
59. U7C U10A U11A C12A C13U  1.21
60. U7C U10G U11C C12A C13A  1.21
61. U7C U11A C13A  1.21
62. U7C U11C C12G C13A  1.21
63. U7C U10C U11A C13G  1.21
64. U7C U10C C12G C13U  1.21
65. U7C U10C U11G  1.21
66. U7G C12A C13U  1.21
67. U7C U10G U11A C12A C13A  1.2
68. U7G G9A U10A U11A C13U  1.2
69. U7G G9A C12G  1.2
70. U7G G9A U10A U11A C12G  1.2
71. U7G G9A U10A U11A C12U  1.2
72. U7C U10A U11A C12U  1.2
73. U7G G9A U10A U11A C12U C13G  1.19
74. U7C U10C U11G C12G C13A  1.19
75. U7G G9A U10A U11A C12G C13G  1.19
76. U7C U10G U11C C12A C13U  1.18
77. U7G G9A U10A U11C C12G C13U  1.18
78. U7C U10C C12G C13G  1.18
79. U7C U10A C12G C13A  1.18
80. U7G G9A C12U C13U  1.18
81. U7C U10C U11C C12G C13G  1.18
82. U7C U11G C12A  1.18
83. U7C U10G U11A C13G  1.18
84. U7C U11A C12U C13A  1.18
85. U7C U10A U11A C12A C13A  1.17
86. U7G G9A U10A U11A C12U C13U  1.17
87. U7C U10A U11A C12G C13U  1.17
88. U7C U11G C12A C13U  1.17
89. U7C U11G C12A C13G  1.17
90. U7C U10G U11A C12A C13G  1.17
91. U7C U10C U11G C13G  1.17
92. U7C U10A U11A C12A  1.17
93. U7C U11A C12U C13G  1.17
94. U7C U10C U11G C12G C13G  1.16
95. U7C U11G C12A C13A  1.16
96. U7C U10G U11G C12G C13U  1.16
97. U7C U10G U11C C12U  1.16
98. U7C U11A C12U C13U  1.16
99. U7C U10G C12A C13A  1.15
100. U7C U10G C12A C13U  1.15
101. U7C U11G C12G C13U  1.15
102. U7G G9A C12U C13G  1.15
103. U7C U11C C13A  1.15
104. U7G G9A C12A C13G  1.15
105. U7C U10G C12A C13G  1.14
106. U7G G9A U10A U11G C12G C13G  1.14
107. U7G G9A U10A C12A C13G  1.14
108. U7C U10C U11C C13G  1.14
109. U7C U10C U11A C13A  1.14
110. U7C U11G C12G C13A  1.14
111. U7C U10A C12G C13G  1.14
112. U7G G9A C12U C13A  1.14
113. U7G G9A U10A U11A C13A  1.14
114. U7G C12A  1.14
115. U7G G9A U10A U11G C13U  1.14
116. U7C U11C C13U  1.13
117. U7G G9A U10A U11G C12A  1.13
118. U7G G9A U10A U11G C12G  1.13
119. U7G G9A U10A U11A C12A C13G  1.13
120. U7G G9A U10A U11G C13G  1.13
121. U7C U10G U11G C12U C13A  1.13
122. U7G G9A C12A C13U  1.13
123. U7C U10A U11C C12A  1.12
124. U7G G9A U10A U11A C12U C13A  1.12
125. U7G G9A U10A U11A C12G C13U  1.12
126. U7C U10A U11C C12A C13G  1.12
127. U7C U10A U11A C12A C13G  1.11
128. U7C U10G C12U C13G  1.11
129. U7C U10G U11C C12A C13G  1.11
130. U7C U10A U11A C12G C13A  1.11
131. U7G G9A U10A U11A C12A C13U  1.11
132. U7G C12A C13G  1.11
133. U7C U11C C12A  1.1
134. U7C U10C U11G C12G C13U  1.1
135. U7G G9A U10A U11C C12G C13G  1.1
136. U7G G9A U10A U11C C12G C13A  1.1
137. U7C U10G U11G C12G C13A  1.1
138. U7G G9A U10A U11A C12G C13A  1.1
139. U7G G9A U10A U11A C12A  1.1
140. U7C U10G U11G C12U C13G  1.1
141. U7C U10A U11C C12A C13A  1.1
142. U7C U10A U11C C12A C13U  1.1
143. U7C U10G U11A C13A  1.1
144. U7G G9A U10A U11G C12G C13A  1.09
145. U7C U10G U11A C12A C13U  1.09
146. U7G G9A U10A U11A C13G  1.09
147. U7G G9A U10A U11G C13A  1.09
148. U7G G9A C12A C13A  1.09
149. U7G G9A U10A U11C  1.09
150. U7C U10A C12U  1.09
151. U7C U10C U11C C13U  1.08
152. U7C U10G U11C C13A  1.08
153. U7C U10G U11A C13U  1.08
154. U7C U10C U11C C13A  1.07
155. U7G G9A U10A U11A C12A C13A  1.07
156. U7C U11G C13A  1.06
157. U7G G9A U10A C12A C13A  1.06
158. U7C U10G U11C C13G  1.06
159. U7C U11C C13G  1.05
160. U7C U10A U11C  1.04
161. U7C U11A C13G  1.04
162. U7C U11G C13U  1.03
163. U7C U11G C13G  1.03
164. U7C U10A U11C C12U  1.03
165. U7C U10G U11C C13U  1.02
166. U7C U10G U11G C12G C13G  0.991
167. U7C U10C U11G C13A  0.947
